Laboratory results as given in paper PMC4999191.

Biological target: calmodulin (CaM agarose beads) (UniProt P62157)
Assay: pull-down with CaM-agarose beads, immunoblot (band quantification printed under the lanes)
Conditions: parent: 100

Row | Substance | percent of parent
1 | PC1-p30, soluble polycystin-1 cytoplasmic tail L4137P | 29
2 | PC1-p30, soluble polycystin-1 cytoplasmic tail R4150C | 116
